Reference: article PMC2808332, “Expanding the Substantial Interactome of NEMO Using Protein Microarrays” (PLoS ONE, 2010)

B1: PIM2 (printed gene product: Pediatric index of mortality 2) (natural protein)
chain: not shown
notes: source: insect cell/baculovirus, purified, spotted (Invitrogen Protoarray v4.0)
B2: Odontogenic, ameloblast associated (natural protein, human, UniProt A1E959 16-279, looked up)
chain: APLIPQRLMSASNSNELLLNLNNGQLLPLQLQGPLNSWIPPFSGILQQQQQAQIPGLSQFSLSALDQFAGLLPNQIPLTGEASFAQGAQAGQVDPLQLQTPPQTQPGPSHVMPYVFSFKMPQEQGQMFQYYPVYMVLPWEQPQQTVPRSPQQTRQQQYEEQIPFYAQFGYIPQLAEPAISGGQQQLAFDPQLGTAPEIAVMSTGEEIPYLQKEAINFRHDSAGVFMPSTSPKPSTTNVFTSAVDQTITPELPEEKDKTDSLREP
notes: Odontogenic, ameloblast associated, human; also called ODAM; source: insect cell/baculovirus, purified, spotted (Invitrogen Protoarray v4.0)
B3: Chromosome 9 open reading frame 32 (natural protein, human, UniProt Q9BV86 1-223, looked up)
chain: MTSEVIEDEKQFYSKAKTYWKQIPPTVDGMLGGYGHISSIDINSSRKFLQRFLREGPNKTGTSCALDCGAGIGRITKRLLLPLFREVDMVDITEDFLVQAKTYLGEEGKRVRNYFCCGLQDFTPEPDSYDVIWIQWVIGHLTDQHLAEFLRRCKGSLRPNGIIVIKDNMAQEGVILDDVDSSVCRDLDVVRRIICSAGLSLLAEERQENLPDEIYHVYSFALR
notes: Chromosome 9 open reading frame 32, human; also called C9ORF32; source: insect cell/baculovirus, purified, spotted (Invitrogen Protoarray v4.0)
B4: Leucine zipper and CTNNBIP1 domain containing (natural protein, human, UniProt Q8WZA0-1 1-190, looked up)
chain: MASRGKTETSKLKQNLEEQLDRLMQQLQDLEECREELDTDEYEETKKETLEQLSEFNDSLKKIMSGNMTLVDELSGMQLAIQAAISQAFKTPEVIRLFAKKQPGQLRTRLAEMDRDLMVGKLERDLYTQQKVEILTALRKLGEKLTADDEAFLSANAGAILSQFEKVSTDLGSGDKILALASFEVEKTKK
notes: Leucine zipper and CTNNBIP1 domain containing, human; also called LZIC; source: insect cell/baculovirus, purified, spotted (Invitrogen Protoarray v4.0)
B5: Calbindin D28K (natural protein, human, UniProt P05937-1 1-261, looked up)
chain: MAESHLQSSLITASQFFEIWLHFDADGSGYLEGKELQNLIQELQQARKKAGLELSPEMKTFVDQYGQRDDGKIGIVELAHVLPTEENFLLLFRCQQLKSCEEFMKTWRKYDTDHSGFIETEELKNFLKDLLEKANKTVDDTKLAEYTDLMLKLFDSNNDGKLELTEMARLLPVQENFLLKFQGIKMCGKEFNKAFELYDQDGNGYIDENELDALLKDLCEKNKQDLDINNITTYKKNIMALSDGGKLYRTDLALILCAGDN
notes: also called CALB1; source: insect cell/baculovirus, purified, spotted (Invitrogen Protoarray v4.0)
B6: TBC1 domain family, member 7 (natural protein, human, UniProt Q9P0N9-1 1-293, looked up)
chain: MTEDSQRNFRSVYYEKVGFRGVEEKKSLEILLKDDRLDTEKLCTFSQRFPLPSMYRALVWKVLLGILPPHHESHAKVMMYRKEQYLDVLHALKVVRFVSDATPQAEVYLRMYQLESGKLPRSPSFPLEPDDEVFLAIAKAMEEMVEDSVDCYWITRRFVNQLNTKYRDSLPQLPKAFEQYLNLEDGRLLTHLRMCSAAPKLPYDLWFKRCFAGCLPESSLQRVWDKVVSGSCKILVFVAVEILLTFKIKVMALNSAEKITKFLENIPQDSSDAIVSKAIDLWHKHCGTPVHSS
notes: TBC1 domain family, member 7, human; also called TBC1D7; source: insect cell/baculovirus, purified, spotted (Invitrogen Protoarray v4.0)
B7: Pleckstrin homology domain containing, family J member 1 (natural protein, human, UniProt Q9NW61 1-149, looked up)
chain: MRYNEKELQALSRQPAEMAAELGMRGPKKGSVLKRRLVKLVVNFLFYFRTDEAEPVGALLLERCRVVREEPGTFSISFIEDPERKYHFECSSEEQCQEWMEALRRASYEFMRRSLIFYRNEIRKVTGKDPLEQFGISEEARFQLSGLQA
notes: Pleckstrin homology domain containing, family J member 1, human; also called PLEKHJ1; source: insect cell/baculovirus, purified, spotted (Invitrogen Protoarray v4.0)
B8: Ring finger protein 7 (sensitive to apoptosis gene, SAG) (natural protein, human, UniProt Q9UBF6-1 1-113, looked up)
chain: MADVEDGEETCALASHSGSSGSKSGGDKMFSLKKWNAVAMWSWDVECDTCAICRVQVMDACLRCQAENKQEDCVVVWGECNHSFHNCCMSLWVKQNNRCPLCQQDWVVQRIGK
notes: Ring finger protein 7 (sensitive to apoptosis gene, SAG), human; also called RNF7; source: insect cell/baculovirus, purified, spotted (Invitrogen Protoarray v4.0)
B9: NOTCH-regulated ankyrin repeat protein (natural protein, human, UniProt Q7Z6K4 1-114, looked up)
chain: MSQAELSTCSAPQTQRIFQEAVRKGNTQELQSLLQNMTNCEFNVNSFGPEGQTALHQSVIDGNLELVKLLVKFGADIRLANRDGWSALHIAAFGGHQDIVLYLITKAKYAASGR
notes: NOTCH-regulated ankyrin repeat protein, human; also called NRARP; source: insect cell/baculovirus, purified, spotted (Invitrogen Protoarray v4.0)
B10: Acyl-Coenzyme A binding domain containing 6 (natural protein, human, UniProt Q9BR61 1-282, looked up)
chain: MASSFLPAGAITGDSGGELSSGDDSGEVEFPHSPEIEETSCLAELFEKAAAHLQGLIQVASREQLLYLYARYKQVKVGNCNTPKPSFFDFEGKQKWEAWKALGDSSPSQAMQEYIAVVKKLDPGWNPQIPEKKGKEANTGFGGPVISSLYHEETIREEDKNIFDYCRENNIDHITKAIKSKNVDVNVKDEEGRALLHWACDRGHKELVTVLLQHRADINCQDNEGQTALHYASACEFLDIVELLLQSGADPTLRDQDGCLPEEVTGCKTVSLVLQRHTTGKA
notes: also called ACBD6; source: insect cell/baculovirus, purified, spotted (Invitrogen Protoarray v4.0)
B11: Growth arrest and DNA-damage-inducible, gamma (natural protein, human, UniProt O95257 1-159, looked up)
chain: MTLEEVRGQDTVPESTARMQGAGKALHELLLSAQRQGCLTAGVYESAKVLNVDPDNVTFCVLAAGEEDEGDIALQIHFTLIQAFCCENDIDIVRVGDVQRLAAIVGAGEEAGAPGDLHCILISNPNEDAWKDPALEKLSLFCEESRSVNDWVPSITLPE
notes: Growth arrest and DNA-damage-inducible, gamma, human; also called GADD45G; source: insect cell/baculovirus, purified, spotted (Invitrogen Protoarray v4.0)

target: T1, NEMO (NF-κB essential modulator), tag-free, biotinylated (human, UniProt Q9Y6K9 1-419, biotin (in vitro biotinylation kit, biotin:NEMO molar ratio 9:1)); experiment: peptide or protein array; Invitrogen Protoarray v4.0, about 8,400 human proteins spotted on nitrocellulose-coated glass slides; 10 µg biotinylated tag-free NEMO in 120 µl probing buffer (PBS, 0.5 mM DTT, 5 mM MgCl2, 5% glycerol, 0.05% Triton X-100), 4°C, 1.5 h; bound NEMO detected with labelled streptavidin; hits Z-score > 3, hits of the biotin-GST control array subtracted; details: both partners purified
T1 construct: NEMO, NF-κB essential modulator, human, 48 kDa; also called biotinylated NEMO; biotin-NEMO; source: E. coli BL21(DE3), purified (glutathione sepharose), GST removed with thrombin, biotinylated in vitro

Does B1 bind?
Result: binds

Does B2 bind?
Result: binds

Does B3 bind?
Result: binds

Does B4 bind?
Result: binds

Does B5 bind?
Result: binds

Does B6 bind?
Result: binds

Does B7 bind?
Result: binds

Does B8 bind?
Result: binds

Does B9 bind?
Result: binds

Does B10 bind?
Result: binds

Does B11 bind?
Result: binds
